Test results published in patent publication US10947272B2, “BACE1 inhibitor peptides” (HOFFMANN-LA ROCHE INC., priority 2015, dated 2021).
“And” between values parts separate entries of the source, which are not always exact repeats. Identical values can stand only once. Numbered stars: 1 amine (or outer) side, 2 acyl side, 3 side chain; on linkers, the order of the positions; unused ones are H or OH. Square brackets hold non-standard residues; d marks the D form. Primed or numbered codes have the meaning given here. Ends that are not written are not given here. * marks the point of attachment. PEG(4) = non-peptide PEG linker joining two peptide parts; MetSta(3S,4S) = CSCC[C@H](N[*:1])[C@@H](O)CC(=O)[*:2]; Biotin = O=C1N[C@H]2[C@H](CS[C@H]2CCCCC(=O)*)N1; Sta = CC(C)C[C@H](N)[C@@H](O)CC(=O)O; PEG4 = NCCOCCOCCOCCOCCC(=O)O; PEG3 = NCCOCCOCCOCCC(=O)O; PEG8′ = not defined here; AEEA = NCCOCCOCC(=O)O

These binders were tested against BACE1 (Asp2, β-secretase, Memapsin-2) in HEK293 cells stably expressing human APP695 (UniProt P56817 46-501, limits assumed) (assay: cell-based or functional assay).
Chain of BACE1 (Asp2, β-secretase, Memapsin-2) in HEK293 cells stably expressing human APP695 (P56817 46-501 limits assumed): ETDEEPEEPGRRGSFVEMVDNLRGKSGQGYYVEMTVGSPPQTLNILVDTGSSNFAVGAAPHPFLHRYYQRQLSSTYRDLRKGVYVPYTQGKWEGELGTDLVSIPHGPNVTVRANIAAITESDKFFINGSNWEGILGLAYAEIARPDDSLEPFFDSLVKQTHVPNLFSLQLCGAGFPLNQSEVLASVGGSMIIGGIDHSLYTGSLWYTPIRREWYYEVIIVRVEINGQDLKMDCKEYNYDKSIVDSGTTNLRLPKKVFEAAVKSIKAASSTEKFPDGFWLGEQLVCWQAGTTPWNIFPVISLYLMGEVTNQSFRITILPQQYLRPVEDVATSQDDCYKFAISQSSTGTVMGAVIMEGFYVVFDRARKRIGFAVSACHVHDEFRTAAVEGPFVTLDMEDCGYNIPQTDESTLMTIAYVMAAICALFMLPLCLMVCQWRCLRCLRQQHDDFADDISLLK

| Binder | IC 50, cellular Aβ-lowering assay (Aβ40 in supernatant of HEK293 cells expressing human APP695) |
| --- | --- |
| YPYFIPL[PEG4]EVN[Sta]VAE[dP]-NH2 (also: TFA salt) [Tyr-Pro-Tyr-Phe-Ile-Pro-Leu-PEG(4)-Glu-Val-Asn-Sta-Val-Ala-Glu-DPro-NH2 × TFA] | 0.0027 µM |
| YPYFIPLG[dK]GEVN[MetSta(3S,4S)]VAEP-NH2 (also: 2TFA salt) [Tyr-Pro-Tyr-Phe-Ile-Pro-Leu-Gly-DLys-Gly-Glu-Val-Asn-MetSta-Val-Ala-Glu-Pro-NH2 × 2TFA] | 0.47 µM |
| YPKFIPLG[dK]GEVN[MetSta(3S,4S)]VAEP-NH2 (also: TFA salt (3 TFA)) [Tyr-Pro-Lys-Phe-Ile-Pro-Leu-Gly-DLys-Gly-Glu-Val-Asn-MetSta-Val-Ala-Glu-Pro-NH2 × 3TFA] | 0.76 µM |
| YPYFI[dK]LG[dK]GEVN[Sta]VAE[dP]-NH2 (also: TFA salt (3 TFA)) [Tyr-Pro-Tyr-Phe-Ile-DLys-Leu-Gly-DLys-Gly-Glu-Val-Asn-Sta-Val-Ala-Glu-DPro-NH2 × 3TFA] | > 40 µM |
| YPYF[dK]PLG[dK]GEVN[Sta]VAE[dP]-NH2 (also: TFA salt (3 TFA)) [Tyr-Pro-Tyr-Phe-DLys-Pro-Leu-Gly-DLys-Gly-Glu-Val-Asn-Sta-Val-Ala-Glu-DPro-NH2 × 3TFA] | > 40 µM |
| YPYFKPAG[dK]GEVN[Sta]VAE[dP]-NH2 (also: 3TFA salt) [Tyr-Pro-Tyr-Phe-Lys-Pro-Ala-Gly-DLys-Gly-Glu-Val-Asn-Sta-Val-Ala-Glu-DPro-NH2 × 3TFA] | 0.071 µM and 0.046 µM |
| TPKPAQGG[dK]GEVN[Sta]VAE[dP]-NH2 (also: TFA salt (3 TFA)) [TPKPAQG-GkG-EVN-Sta-VAEp-NH2 × 3TFA] | > 40 µM |
| GARFIPAG[dK]GEVN[Sta]VAE[dP]-NH2 (also: TFA salt (3 TFA)) [Gly-Ala-Arg-Phe-Ile-Pro-Ala-Gly-DLys-Gly-Glu-Val-Asn-Sta-Val-Ala-Glu-DPro-NH2 × 3TFA] | 0.42 µM |
| YPKFISAG[dK]GEVN[Sta]VAE[dP]-NH2 (also: 3TFA salt) [YPKFISA-GkG-EVN-Sta-VAEp-NH2 × 3TFA] | 0.75 µM |
| YPYFIP[dK]G[dK]GEVN[MetSta(3S,4S)]VAEP-NH2 (also: TFA salt (3 TFA)) [Tyr-Pro-Tyr-Phe-Ile-Pro-DLys-Gly-DLys-Gly-Glu-Val-Asn-MetSta-Val-Ala-Glu-Pro-NH2 × 3TFA] | 0.015 µM |
| YPYFIP[dK]G[dK]GEVN[MetSta(3S,4S)]VAE[dF]-NH2 (also: TFA salt (3 TFA)) [Tyr-Pro-Tyr-Phe-Ile-Pro-DLys-Gly-DLys-Gly-Glu-Val-Asn-MetSta-Val-Ala-Glu-DPhe-NH2 × 3TFA] | 0.19 µM |
| YPYFIPLGGGEVN[Sta]VAE[dP]-NH2 (also: TFA salt) [Tyr-Pro-Tyr-Phe-Ile-Pro-Leu-Gly-Gly-Gly-Glu-Val-Asn-Sta-Val-Ala-Glu-DPro-NH2 × TFA] | 0.42 µM |
| [dK]PYFIPLG[dK]GEVN[Sta]VAE[dP]-NH2 (also: TFA salt (3 TFA)) [DLys-Pro-Tyr-Phe-Ile-Pro-Leu-Gly-DLys-Gly-Glu-Val-Asn-Sta-Val-Ala-Glu-DPro-NH2 × 3TFA] | 2.93 µM |
| H-YPKFIPL[PEG4]EVN[Sta]VAE[dP]-NH2 (numbers in words are those of the source; also: 3TFA salt) [1 H-Tyr-Pro-Lys-Phe-Ile-Pro-Leu-PEG(4)-Glu-Val-Asn-Sta-Val-Ala-Glu-DPro-NH2 × 3TFA] | 0.052 µM |
| H-YPYFIP[dK][PEG4]EVN[Sta]VAE[dP]-NH2 (numbers in words are those of the source; also: TFA salt (2 TFA)) [H-Tyr-Pro-Tyr-Phe-Ile-Pro-DLys-PEG(4)-Glu-Val-Asn-Sta-Val-Ala-Glu-DPro-NH2 × 2TFA] | 0.045 µM |
| H-YPYF[dK]L[PEG4]EVN[Sta]VAE[dP]-NH2 (also: TFA salt) [H-Tyr-Pro-Tyr-Phe-DLys-Leu-PEG(4)-Glu-Val-Asn-Sta-Val-Ala-Glu-DPro-NH2 × 3TFA] | > 40 µM |
| H-YPYF[dK]PL[PEG4]EVN[Sta]VAE[dP]-NH2 (numbers in words are those of the source; also: TFA salt (2 TFA)) [H-Tyr-Pro-Tyr-Phe-DLys-Pro-Leu-PEG(4)-Glu-Val-Asn-Sta-Val-Ala-Glu-DPro-NH2 × 2TFA] | > 40 µM |
| YPYFIP[dK][PEG(4)]EVNLAAE[dP]-NH2 (numbers in words are those of the source; also: Leu11-Ala12 as Leu*Ala hydroxyethylene dipeptide isostere, 2TFA salt) [Tyr-Pro-Tyr-Phe-Ile-Pro-DLys-PEG(4)-Glu-Val-Asn-Leu*Ala-Ala-Glu-DPro-NH2 × 2TFA] | 0.015 µM |
| YPYF[dK]LG[dK]GEVNLAAE[dP]-NH2 (also: Leu13-Ala14 hydroxyethylene dipeptide isostere (Leu*Ala) in place of the amide bond, 3TFA salt) [Tyr-Pro-Tyr-Phe-DLys-Leu-Gly-DLys-Gly-Glu-Val-Asn-Leu*Ala-Ala-Glu-DPro-NH2 × 3TFA] | 0.034 µM |
| YPYFIP[dK][PEG(4)]EVN[MetSta(3S,4S)]VAE[dP]-NH2 (numbers in words are those of the source; also: TFA salt (2 TFA)) [Tyr-Pro-Tyr-Phe-Ile-Pro-DLys-PEG(4)-Glu-Val-Asn-MetSta-Val-Ala-Glu-DPro-NH2 × 2TFA] | 1.01 µM |
| H-[dY]PYFIP[dK]G[dK]GEVN[Sta]VAE[dP]-NH2 (also: TFA salt (3 TFA)) [H-DTyr-Pro-Tyr-Phe-Ile-Pro-DLys-Gly-DLys-Gly-Glu-Val-Asn-Sta-Val-Ala-Glu-DPro-NH2 × 3TFA] | 0.063 µM |
| H-[dY]PYFIPLG[dK]GEVN[Sta]VAE[dP]-NH2 (also: TFA salt (2 TFA)) [H-DTyr-Pro-Tyr-Phe-Ile-Pro-Leu-Gly-DLys-Gly-Glu-Val-Asn-Sta-Val-Ala-Glu-DPro-NH2 × 2TFA] | 0.81 µM |
| YPYFIPLG[dK]GEVN[Sta]VAE[dP]-NH2 (also: 2TFA salt) [Tyr-Pro-Tyr-Phe-Ile-Pro-Leu-Gly-DLys-Gly-Glu-Val-Asn-Sta-Val-Ala-Glu-DPro-NH2 × 2TFA] | 0.094 µM |
| Ac-[dY]PYFIPLG[dK]GEVN[Sta]VAE[dP]-NH2 (also: TFA salt) [Ac-DTyr-Pro-Tyr-Phe-Ile-Pro-Leu-Gly-DLys-Gly-Glu-Val-Asn-Sta-Val-Ala-Glu-DPro-NH2 × TFA] | 0.11 µM |
| H-Y[dK]YFIPLG[dK]GEVN[Sta]VAE[dP]-NH2 (also: TFA salt) [H-Tyr-DLys-Tyr-Phe-Ile-Pro-Leu-Gly-DLys-Gly-Glu-Val-Asn-Sta-Val-Ala-Glu-DPro-NH2] | > 40 µM |
| H-YP[dK]FIPLG[dK]GEVN[Sta]VAE[dP]-NH2 (also: TFA salt) [H-Tyr-Pro-DLys-Phe-Ile-Pro-Leu-Gly-DLys-Gly-Glu-Val-Asn-Sta-Val-Ala-Glu-DPro-NH2] | 29.3 µM |
| {Biotin-AEEA}-C[PEG8′]YPYFIP[dK]G[dK]GEVN[Sta]VAE[dP]-NH2 (also: TFA salt) [Biotin-PEG2-Cys-PEG8-Tyr-Pro-Tyr-Phe-Ile-Pro-DLys-Gly-DLys-Gly-Glu-Val-Asn-Sta-Val-Ala-Glu-DPro-NH2] | 0.018 µM |
| {Biotin-AEEA}-C[PEG3]YPYFIP[dK]G[dK]GEVN[Sta]VAE[dP]-NH2 (also: TFA salt) [Biotin-PEG2-Cys-PEG3-Tyr-Pro-Tyr-Phe-Ile-Pro-DLys-Gly-DLys-Gly-Glu-Val-Asn-Sta-Val-Ala-Glu-DPro-NH2] | 0.026 µM |
| H-GGGYPYFIP[dK]G[dK]GEVN[Sta]VAE[dP]-NH2 (also: TFA salt) [H-Gly-Gly-Gly-Tyr-Pro-Tyr-Phe-Ile-Pro-DLys-Gly-DLys-Gly-Glu-Val-Asn-Sta-Val-Ala-Glu-DPro-NH2 × 3TFA] | 0.0064 µM |
